Measured values published in patent publication US20240254222A1 (Bayer, published 2024).

How the values were obtained:
[1] = target: Human Semaphorin3A-Fc (R&D Systems), TPP-13211 (human); test: cell-based or functional assay
[2] = target: T1, Pig Semaphorin3A-Sema Domain, TPP-20176 (pig, UniProt Q63548 21-569 (rat entry)); test: SPR, captured antibody, Sema3A domain analyte
T1 construct: produced inhouse
T1 chain: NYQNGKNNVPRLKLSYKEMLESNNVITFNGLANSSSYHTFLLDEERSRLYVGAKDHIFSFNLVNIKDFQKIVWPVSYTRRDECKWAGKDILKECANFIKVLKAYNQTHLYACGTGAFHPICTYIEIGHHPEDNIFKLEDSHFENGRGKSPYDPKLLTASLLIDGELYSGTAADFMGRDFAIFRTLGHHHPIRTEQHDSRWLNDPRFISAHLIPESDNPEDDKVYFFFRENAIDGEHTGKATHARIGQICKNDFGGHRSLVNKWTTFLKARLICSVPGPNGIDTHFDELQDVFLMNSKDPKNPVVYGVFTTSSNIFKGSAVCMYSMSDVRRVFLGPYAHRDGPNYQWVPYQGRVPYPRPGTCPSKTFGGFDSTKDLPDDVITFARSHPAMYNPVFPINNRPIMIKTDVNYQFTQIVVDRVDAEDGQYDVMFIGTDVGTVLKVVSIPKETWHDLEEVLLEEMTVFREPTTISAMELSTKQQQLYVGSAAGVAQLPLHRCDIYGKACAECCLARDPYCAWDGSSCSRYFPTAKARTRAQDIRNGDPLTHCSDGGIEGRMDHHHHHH
Procedure, shortened: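 Kinetics fitted to a 1:1 Langmuir model after double referencing; glycine pH 2.0 regeneration. Sema3A domain analytes (several species) ran at […]-3.125 nM multi-cycle or single 100 nM; Fc-tagged Sema3A at 1.56-200 nM over Fab-captured antibody, otherwise Fc capture. Buffer HBS P+ plus 300 mM NaCl, CaCl₂, MgCl₂, BSA, 25° C.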

[3] = target: T2, Rat Semaphorin3A-Sema Domain, TPP-19120 (rat, UniProt Q63548 21-569); test: SPR, captured antibody, Sema3A domain analyte
T2 construct: produced inhouse
T2 sequence: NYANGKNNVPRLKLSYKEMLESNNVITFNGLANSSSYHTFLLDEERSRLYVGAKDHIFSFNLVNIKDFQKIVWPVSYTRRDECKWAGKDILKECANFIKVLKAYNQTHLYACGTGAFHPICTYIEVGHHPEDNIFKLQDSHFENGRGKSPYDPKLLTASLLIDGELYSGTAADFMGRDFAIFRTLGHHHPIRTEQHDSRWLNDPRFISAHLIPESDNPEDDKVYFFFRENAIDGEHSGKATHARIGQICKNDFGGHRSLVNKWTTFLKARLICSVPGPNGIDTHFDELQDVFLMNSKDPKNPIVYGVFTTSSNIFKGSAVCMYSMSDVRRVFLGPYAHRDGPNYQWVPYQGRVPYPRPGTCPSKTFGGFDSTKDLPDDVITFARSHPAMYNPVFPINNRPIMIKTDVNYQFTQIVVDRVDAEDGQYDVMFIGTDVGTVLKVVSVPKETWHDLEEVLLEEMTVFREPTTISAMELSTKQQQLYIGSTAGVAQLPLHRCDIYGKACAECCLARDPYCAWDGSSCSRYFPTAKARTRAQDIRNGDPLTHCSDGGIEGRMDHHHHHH
Method: To assess the binding activity of anti-Sema3A antibodies binding assays were conducted using surface plasmon resonance (SPR). Binding assays were performed on a Biacore T200 instrument (Cytiva) at 25° C. using assay buffer HBS P+, 300 mM NaCl, 0.75 mM CaCl₂, 2.5 mM MgCl₂, 1 mg/ml BSA, 0.05% NaN₃. Antibodies were captured via anti-human Fc IgGs (“Human antibody capture kit”, Order No. BR100839, Cytiva) covalently amine coupled to a Series S CM5 sensor chip (Cytiva). The amine coupling was carried out according to the manufacturer's instructions using 1-ethyl-3-(3-dimethylaminopropyl) carbodiimide hydrochloride (EDC), N-hydroxysuccinimide (NHS) and ethanolamine HCl, pH 8.5 (“Amine Coupling Kit” BR-1000-50, Cytiva.). Human, mouse, cynomolgus, rat, dog and pig monovalent Sema3A domain were used as analytes in a concentration series from 0.024-3.125 nM in multi cycle kinetics mode. The sensor surface was regenerated with glycine pH 2.0 after each antigen injection. Obtained sensorgrams were double referenced (subtraction of reference flow cell signal and buffer injection) and were fitted to a 1:1 Langmuir binding model using the Biacore T200 Evaluation software obtaining the experimental fitted RMax value. To calculate the binding activity first the theoretical RMax needs to be calculated according to equation 1: […]
Binding activity was determined by dividing the experimental determined RMax by the theoretical calculated RMax according to equation 2: […]

Human Semaphorin3A-Fc (R&D Systems), TPP-13211 (human), sequence (chain, as listed by the source limits assumed): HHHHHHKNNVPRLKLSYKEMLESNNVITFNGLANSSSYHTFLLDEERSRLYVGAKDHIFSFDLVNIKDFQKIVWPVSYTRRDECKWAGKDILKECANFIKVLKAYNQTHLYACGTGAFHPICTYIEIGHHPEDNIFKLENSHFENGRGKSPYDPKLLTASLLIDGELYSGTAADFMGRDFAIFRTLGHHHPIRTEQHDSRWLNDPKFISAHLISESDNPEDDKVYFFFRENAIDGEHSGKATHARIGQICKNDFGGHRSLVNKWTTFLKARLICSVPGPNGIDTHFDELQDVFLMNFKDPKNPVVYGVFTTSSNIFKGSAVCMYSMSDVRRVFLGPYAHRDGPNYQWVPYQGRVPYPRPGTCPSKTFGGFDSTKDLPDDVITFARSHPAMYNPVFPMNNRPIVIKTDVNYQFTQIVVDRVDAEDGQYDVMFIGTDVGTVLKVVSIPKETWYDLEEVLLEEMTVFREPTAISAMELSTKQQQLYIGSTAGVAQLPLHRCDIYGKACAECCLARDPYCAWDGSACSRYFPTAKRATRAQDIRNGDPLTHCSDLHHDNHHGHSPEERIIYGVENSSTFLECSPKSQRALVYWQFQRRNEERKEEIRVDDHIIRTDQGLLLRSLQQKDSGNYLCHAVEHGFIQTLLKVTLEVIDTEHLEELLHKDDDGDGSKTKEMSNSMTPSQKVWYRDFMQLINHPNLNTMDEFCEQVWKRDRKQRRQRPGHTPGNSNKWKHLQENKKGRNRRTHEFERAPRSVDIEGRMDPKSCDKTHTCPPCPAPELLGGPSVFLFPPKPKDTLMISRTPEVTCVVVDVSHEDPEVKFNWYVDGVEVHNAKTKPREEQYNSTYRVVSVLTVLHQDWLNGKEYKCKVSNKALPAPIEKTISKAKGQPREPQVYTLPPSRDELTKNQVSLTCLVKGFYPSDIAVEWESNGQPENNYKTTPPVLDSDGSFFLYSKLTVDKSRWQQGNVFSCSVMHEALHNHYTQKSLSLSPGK

B1: TPP-23337 (antibody, human IgG4 S228P, lambda, V domains shown)
VH: EVQLLESGGGLVQPGGSLRLSCAASGFTFSSYAMSWVRQAPGKGLEWVSAIGYGGDTYYADSVKGRFTISRDNSKNTLYLQMNSLRAEDTAVYYCARRDDYTSRDAFDYWGQGTLVTVSS
VL: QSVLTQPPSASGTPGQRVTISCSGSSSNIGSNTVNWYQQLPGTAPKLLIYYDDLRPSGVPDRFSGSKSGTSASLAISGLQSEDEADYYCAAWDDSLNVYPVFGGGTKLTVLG
EC50 [nM], MCM assay [1]: 0.33 nM
Kd [2]: 0.011 nM

B2: TPP-23347 (antibody, human IgG4 S228P, lambda, V domains shown)
VH: EVQLLESGGGLVQPGGSLRLSCAASGFTFYSYAMLWVRQAPGKGLEWVSAIGTGGDTYYADSVKGRFTISRDNSKNTLYLQMNSLRAEDTAVYYCARRDDYTSRDAFDYWGQGTLVTVSS
VL: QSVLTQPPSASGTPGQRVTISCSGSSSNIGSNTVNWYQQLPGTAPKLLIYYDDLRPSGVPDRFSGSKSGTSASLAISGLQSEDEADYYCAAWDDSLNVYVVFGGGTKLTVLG
EC50 [nM], MCM assay [1]: 0.67 nM
Kd [2]: 0.053 nM

B3: TPP-23373 (antibody, human IgG4 S228P, lambda, V domains shown)
VH: EVQLLESGGGLVQPGGSLRLSCAASGFTFYSYAMSWVRQAPGKGLEWVSAIGYGGDTYYADSVKGRFTISRDNSKNTLYLQMNSLRAEDTAVYYCARRDDYTSRDAFDYWGQGTLVTVSS
VL: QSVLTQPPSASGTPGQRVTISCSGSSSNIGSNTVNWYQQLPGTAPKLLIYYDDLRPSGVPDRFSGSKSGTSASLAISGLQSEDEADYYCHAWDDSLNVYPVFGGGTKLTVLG
EC50 [nM], MCM assay [1]: 0.63 nM
Kd [2]: 0.078 nM

B4: TPP-23334 (antibody, human IgG4 S228P, lambda, V domains shown)
VH: EVQLLESGGGLVQPGGSLRLSCAASGFTFSSYAMSWVRQAPGKGLEWVSAIGYGGDTYYADSVKGRFTISRDNSKNTLYLQMNSLRAEDTAVYYCARRDDYTSRDAFDYWGQGTLVTVSS
VL: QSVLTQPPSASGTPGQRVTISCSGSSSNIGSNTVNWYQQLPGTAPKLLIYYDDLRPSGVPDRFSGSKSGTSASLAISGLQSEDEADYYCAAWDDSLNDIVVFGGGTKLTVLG
EC50 [nM], MCM assay [1]: 0.67 nM
Kd [2]: 0.014 nM

B5: TPP-23340 (antibody, human IgG4 S228P, lambda, V domains shown)
VH: EVQLLESGGGLVQPGGSLRLSCAASGFTFSSYAMSWVRQAPGKGLEWVSAIGYGGDTYYADSVKGRFTISRDNSKNTLYLQMNSLRAEDTAVYYCARRDDYTSRDAFDYWGQGTLVTVSS
VL: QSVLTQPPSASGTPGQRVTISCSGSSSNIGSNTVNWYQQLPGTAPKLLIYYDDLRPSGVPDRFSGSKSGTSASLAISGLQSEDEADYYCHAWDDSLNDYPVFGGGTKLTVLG
EC50 [nM], MCM assay [1]: 0.87 nM
Kd [2]: 0.062 nM

B6: TPP-23375 (antibody, human IgG4 S228P, lambda, V domains shown)
VH: EVQLLESGGGLVQPGGSLRLSCAASGFTFYSYAMSWVRQAPGKGLEWVSAIGYGGDTYYADSVKGRFTISRDNSKNTLYLQMNSLRAEDTAVYYCARRDDYTSRDAFDYWGQGTLVTVSS
VL: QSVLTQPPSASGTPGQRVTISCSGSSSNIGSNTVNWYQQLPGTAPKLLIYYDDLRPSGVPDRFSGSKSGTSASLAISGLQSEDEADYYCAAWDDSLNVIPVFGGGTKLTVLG
EC50 [nM], MCM assay [1]: 1.03 nM
Kd [2]: 0.047 nM

B7: TPP-23374 (antibody, human IgG4 S228P, lambda, V domains shown)
VH: EVQLLESGGGLVQPGGSLRLSCAASGFTFYSYAMSWVRQAPGKGLEWVSAIGYGGDTYYADSVKGRFTISRDNSKNTLYLQMNSLRAEDTAVYYCARRDDYTSRDAFDYWGQGTLVTVSS
VL: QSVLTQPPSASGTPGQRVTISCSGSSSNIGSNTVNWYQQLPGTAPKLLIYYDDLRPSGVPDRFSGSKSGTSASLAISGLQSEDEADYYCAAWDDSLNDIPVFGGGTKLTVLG
EC50 [nM], MCM assay [1]: 0.3 nM
Kd [2]: < 0.003 nM

B8: TPP-23338 (antibody, human IgG4 S228P, lambda, V domains shown)
VH: EVQLLESGGGLVQPGGSLRLSCAASGFTFSSYAMSWVRQAPGKGLEWVSAIGYGGDTYYADSVKGRFTISRDNSKNTLYLQMNSLRAEDTAVYYCARRDDYTSRDAFDYWGQGTLVTVSS
VL: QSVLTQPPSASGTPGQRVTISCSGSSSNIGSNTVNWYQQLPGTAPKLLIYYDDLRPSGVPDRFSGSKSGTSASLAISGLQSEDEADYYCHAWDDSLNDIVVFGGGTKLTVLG
EC50 [nM], MCM assay [1]: 0.6 nM
Kd [2]: 0.046 nM

B9: TPP-23298 (antibody, human IgG4 S228P, lambda, V domains shown)
VH: EVQLLESGGGLVQPGGSLRLSCAASGFTFYSYAMSWVRQAPGKGLEWVSAIGTGGDTYYADSVKGRFTISRDNSKNTLYLQMNSLRAEDTAVYYCARRDDYTSRDAFDYWGQGTLVTVSS
VL: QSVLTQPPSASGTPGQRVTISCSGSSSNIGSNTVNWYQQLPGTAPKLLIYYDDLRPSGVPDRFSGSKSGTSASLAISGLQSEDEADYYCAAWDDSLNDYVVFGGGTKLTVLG
EC50 [nM], MCM assay [1]: 0.4 nM
Binding Activity [%] [3]: 108%
Kd [2]: 0.067 nM

B10: TPP-23346 (antibody, human IgG4 S228P, lambda, V domains shown)
VH: EVQLLESGGGLVQPGGSLRLSCAASGFTFYSYAMLWVRQAPGKGLEWVSAIGTGGDTYYADSVKGRFTISRDNSKNTLYLQMNSLRAEDTAVYYCARRDDYTSRDAFDYWGQGTLVTVSS
VL: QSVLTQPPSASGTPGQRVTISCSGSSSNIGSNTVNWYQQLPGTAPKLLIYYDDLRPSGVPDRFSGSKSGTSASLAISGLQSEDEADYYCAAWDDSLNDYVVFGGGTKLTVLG
EC50 [nM], MCM assay [1]: 1.27 nM
Kd [2]: 0.058 nM

B11: TPP-23341 (antibody, human IgG4 S228P, lambda, V domains shown)
VH: EVQLLESGGGLVQPGGSLRLSCAASGFTFSSYAMSWVRQAPGKGLEWVSAIGYGGDTYYADSVKGRFTISRDNSKNTLYLQMNSLRAEDTAVYYCARRDDYTSRDAFDYWGQGTLVTVSS
VL: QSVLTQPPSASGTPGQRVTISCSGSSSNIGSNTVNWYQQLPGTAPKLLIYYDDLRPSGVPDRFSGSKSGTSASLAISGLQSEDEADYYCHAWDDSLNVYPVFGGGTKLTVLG
EC50 [nM], MCM assay [1]: 0.9 nM
Kd [2]: 0.086 nM

B12: TPP-23345 (antibody, human IgG4 S228P, lambda, V domains shown)
VH: EVQLLESGGGLVQPGGSLRLSCAASGFTFSSYAMSWVRQAPGKGLEWVSAIGYGGDTYYADSVKGRFTISRDNSKNTLYLQMNSLRAEDTAVYYCARRDDYTSRDAFDYWGQGTLVTVSS
VL: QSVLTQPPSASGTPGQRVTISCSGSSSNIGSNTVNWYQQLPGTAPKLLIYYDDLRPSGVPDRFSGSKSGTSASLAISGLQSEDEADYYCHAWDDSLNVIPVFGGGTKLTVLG
EC50 [nM], MCM assay [1]: 0.93 nM
Kd [2]: 0.055 nM

B13: TPP-11489 (antibody, human IgG1, lambda)
heavy: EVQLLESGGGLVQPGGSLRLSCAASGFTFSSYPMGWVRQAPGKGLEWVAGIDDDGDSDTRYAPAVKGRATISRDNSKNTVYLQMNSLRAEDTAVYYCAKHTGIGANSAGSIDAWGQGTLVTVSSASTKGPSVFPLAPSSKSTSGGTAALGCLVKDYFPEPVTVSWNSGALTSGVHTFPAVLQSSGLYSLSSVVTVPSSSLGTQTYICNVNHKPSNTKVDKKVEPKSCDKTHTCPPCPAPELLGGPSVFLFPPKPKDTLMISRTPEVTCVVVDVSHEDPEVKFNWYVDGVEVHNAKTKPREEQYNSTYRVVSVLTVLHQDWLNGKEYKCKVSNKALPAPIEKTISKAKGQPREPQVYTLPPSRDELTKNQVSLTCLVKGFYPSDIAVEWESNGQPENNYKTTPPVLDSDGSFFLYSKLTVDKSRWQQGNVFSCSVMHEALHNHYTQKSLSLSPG
light: SYELTQPPSVSVSPGQTARITCSGGGSYTGSYYYGWYQQKPGQAPVTVIYYNNKRPSDIPERFSGSLSGTTNTLTISGVQAEDEADYYCGSADNSGDAFGTGTKVTVLGQPKAAPSVTLFPPSSEELQANKATLVCLISDFYPGAVTVAWKADSSPVKAGVETTTPSKQSNNKYAASSYLSLTPEQWKSHRSYSCQVTHEGSTVEKTVAPTECS
notes: human IgG1; also called Chiome; Chiome Prior Art (hIgG1)
Binding Activity [%] [3]: 31%
Kd [2]: 100 nM

B14: TPP-17755 (antibody, human IgG1, lambda, V domains shown)
VH: EVQLLESGGGLVQTGGSLRLSCAASGFTFSDYAMSWVRQAPGKGLEWVSWIYYDSGSKYYADSVKGRFTISRDNSKNTLYLQMNSLRAEDTAVYYCAKLNGDFDYWGQGTLVTVSS
VL: QSVLTQPPSASGTPGQRVTISCSGSSSNIGNNDVSWYQQLPGTAPKLLIYADSHRPSGVPDRFSGSKSGTSASLAISGLRSEDEADYYCGAWDSSLSGYVFGGGTKLTVLG
notes: also called Samsung; Samsung Prior Art F11
EC50 [nM], MCM assay [1]: 11.3 nM
Binding Activity [%] [3]: 56%
Kd [2]: 4 nM

B15: TPP-30789 (antibody, human IgG1, kappa, V domains shown)
VH: EVQLVESGGGLVQPGGSLRLSCAASGFPFSSYYMSWVRQAPGKGLEWVSTIIKSGGYAYYPDSVKDRFTISRDNSKNTLYLQMSSLRAEDTAVYYCVRGGQGAMDYWGQGTTVTVSS
VL: EIVLTQSPATLSLSPGERATLSCRASQSIGDYLHWYQQKPGQAPRLLIKYASQSISGIPARFSGSGSGTDFTLTITSLEPEDFAVYYCQQGYSFPYTFGGGTKLEIKR
notes: prior art, WO 2020/225400; also called BI clone II; Böhringer (BI) Clone II
Binding Activity [%] [3]: 104%
Kd [2]: 0.039 nM

B16: TPP-30791 (antibody, human IgG1, kappa, V domains shown)
VH: EVQLVESGGGLLQLGGSLRLSCAASGFTFSSYYMSWVRQAPGKGLEWVSTIIKSGGYAYYPDSVKDRFTISRDNSKNTLNLQMNSLRAEDTAVYYCVKGGQGAMDYWGQGTTVTVSS
VL: EIVLTQSPATLSLSPGERATLSCRASQSIGDYLHWYQQKPGQAPRLLIKYASQSISGIPARFSGSGSGTDFTLTISSLEPEDFAVYYCQQGYSFPYTFGGGTKLEIKR
notes: prior art, WO 2020/225400; also called BI clone IV; Böhringer (BI) Clone IV
Binding Activity [%] [3]: 109%
Kd [2]: 0.029 nM

B17: TPP-30790 (antibody, human IgG1, kappa, V domains shown)
VH: EVQLVESGGGLVQLGGSLRLSCAASGFTFSSYYMSWVRQAPGKGLEWVSTIIKSGGYAYYPDSVKDRFTISRDNSKNTLYLQMNSLRAEDTAVYYCVKGGQGAMDYWGQGTTVTVSS
VL: EIVLTQSPATLSLSPGERATLSCRASQSIGDYLHWYQQKPGQAPRLLIYYASQSISGIPARFSGSGSGTDFTLTISSLEPEDFAVYYCQQGYSFPYTFGGGTKLEIKR
notes: prior art, WO 2020/225400; also called BI clone III; Böhringer (BI) Clone III
Binding Activity [%] [3]: 94%
Kd [2]: 0.036 nM

B18: TPP-30792 (antibody, human IgG1, lambda, V domains shown)
V domain 1: EVQLLESGGGLVQPGGSLRLSCAASGFTFRSYAVHWVRQAPGKGLEWVSSTEGSGVGTSYTDSVKGRFTISRDNSKNTLYLQMNSLRAEDTAVYYCARMLGGGNPLDYLDYWGQGTLVTVSS
V domain 2: QSVLTQPPSASGTPGQRVTISCSGSSSNLGEGYDVHWYQQLPGKAPKLLIYYSDFRPSGVSDRFSGSKSGTSASLAISGLQSEDEADYYCAAWDDSLSSQVFGGGTQVTVLG
notes: IgG1; prior art, WO 2020/261281; also called 3H4 Univ Ramot; 3H4 (Ramot) Clon I
binding result [2]: no binding
